System: Escherichia coli TOP10
Experiment: shrunken log2 fold change of peptide-encoding DNA abundance (4.5 h post-induction vs induction); higher = less antimicrobial activity (less host growth inhibition)
Details: time post-induction: 4.5 h; library: site-saturation at positions 5, 18, 19, 20
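Note: peptides expressed intracellularly from a pBAD plasmid library in pooled LB shake-flask culture, induced with 0.3% L-arabinose, DNA abundance read by NGS, three biological replicates, DESeq2 with apeglm shrinkage.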

RRIRPRPPRLPRPRPRPPEVPRP and RRIRERPPRLPRPRPRPEEPPRP are within 0.2 log units of each other in “shrunken log2 fold change” value: -0.0265 for the first, 0.139 for the second.

RRIRTRPPRLPRPRPRPNDFPRP and RRIRLRPPRLPRPRPRPRWYPRP are within 0.2 log units of each other in “shrunken log2 fold change” value: -0.205 for the first, -0.206 for the second.

Compared with RRIRERPPRLPRPRPRPDQRPRP, RRIRGRPPRLPRPRPRPKWPPRP is higher in “shrunken log2 fold change” value: -0.48 for the first, 0.322 for the second.

RRIRWRPPRLPRPRPRPYEYPRP and RRIRLRPPRLPRPRPRPQKDPRP are within 0.2 log units of each other in “shrunken log2 fold change” value: -0.254 for the first, -0.449 for the second.

RRIRIRPPRLPRPRPRPKRKPRP and RRIRDRPPRLPRPRPRPCQMPRP are within 0.2 log units of each other in “shrunken log2 fold change” value: -0.105 for the first, -0.00455 for the second.

Going from RRIRMRPPRLPRPRPRPLQYPRP to RRIRVRPPRLPRPRPRPWVIPRP, the “shrunken log2 fold change” value falls from -0.106 to -0.43.

Compared with RRIRARPPRLPRPRPRPVKSPRP, RRIRMRPPRLPRPRPRPLIFPRP is lower in “shrunken log2 fold change” value: 0.19 for the first, -0.139 for the second.

RRIRCRPPRLPRPRPRPHACPRP and RRIRHRPPRLPRPRPRPPNDPRP are within 0.2 log units of each other in “shrunken log2 fold change” value: -0.281 for the first, -0.471 for the second.

First: RRIRGRPPRLPRPRPRPKGEPRP
Second: RRIRQRPPRLPRPRPRPQWMPRP
The “shrunken log2 fold change” value of the first is higher: 0.197 for the first, -0.494 for the second.

RRIRTRPPRLPRPRPRPFMAPRP and RRIRVRPPRLPRPRPRPGSKPRP are within 0.2 log units of each other in “shrunken log2 fold change” value: -0.0759 for the first, 0.0731 for the second.

RRIRQRPPRLPRPRPRPWEPPRP and RRIRIRPPRLPRPRPRPTVEPRP are within 0.2 log units of each other in “shrunken log2 fold change” value: 0.106 for the first, -0.0817 for the second.

First: RRIRWRPPRLPRPRPRPADSPRP
Second: RRIRIRPPRLPRPRPRPIAKPRP
The “shrunken log2 fold change” value of the first is lower: -0.29 for the first, -0.0645 for the second.

Going from RRIRIRPPRLPRPRPRPNLIPRP to RRIRNRPPRLPRPRPRPAMWPRP, the “shrunken log2 fold change” value rises from -0.654 to -0.0838.

Going from RRIRHRPPRLPRPRPRPIRMPRP to RRIRRRPPRLPRPRPRPFVAPRP, the “shrunken log2 fold change” value rises from -0.217 to 0.354.

Going from RRIRKRPPRLPRPRPRPDPCPRP to RRIRWRPPRLPRPRPRPPWWPRP, the “shrunken log2 fold change” value rises from 0.312 to 0.674.

Compared with RRIRSRPPRLPRPRPRPVMPPRP, RRIRIRPPRLPRPRPRPCCDPRP is lower in “shrunken log2 fold change” value: -0.103 for the first, -0.67 for the second.

RRIRDRPPRLPRPRPRPKAYPRP and RRIRERPPRLPRPRPRPRMEPRP are within 0.2 log units of each other in “shrunken log2 fold change” value: 0.053 for the first, -0.00684 for the second.

First: RRIRSRPPRLPRPRPRPFWTPRP
Second: RRIRSRPPRLPRPRPRPENEPRP
The “shrunken log2 fold change” value of the first is higher: 0.131 for the first, -0.0857 for the second.

Compared with RRIRRRPPRLPRPRPRPYCVPRP, RRIRCRPPRLPRPRPRPDLHPRP is higher in “shrunken log2 fold change” value: -0.462 for the first, -0.252 for the second.

RRIRYRPPRLPRPRPRPDAMPRP and RRIRPRPPRLPRPRPRPANLPRP are within 0.2 log units of each other in “shrunken log2 fold change” value: -0.0326 for the first, -0.12 for the second.

Compared with RRIRWRPPRLPRPRPRPDHIPRP, RRIRKRPPRLPRPRPRPAWTPRP is higher in “shrunken log2 fold change” value: -0.0546 for the first, 0.261 for the second.

RRIRKRPPRLPRPRPRPVRQPRP and RRIRPRPPRLPRPRPRPIMEPRP are within 0.2 log units of each other in “shrunken log2 fold change” value: -0.0361 for the first, -0.159 for the second.

Going from RRIRMRPPRLPRPRPRPMVPPRP to RRIRKRPPRLPRPRPRPRKNPRP, the “shrunken log2 fold change” value rises from -0.0114 to 0.876.

Going from RRIRMRPPRLPRPRPRPGAQPRP to RRIRFRPPRLPRPRPRPSTHPRP, the “shrunken log2 fold change” value falls from 1.24 to -0.569.

Compared with RRIRFRPPRLPRPRPRPFILPRP, RRIRWRPPRLPRPRPRPPWEPRP is higher in “shrunken log2 fold change” value: -0.749 for the first, 0.541 for the second.

Compared with RRIRCRPPRLPRPRPRPWVPPRP, RRIRLRPPRLPRPRPRPVKCPRP is higher in “shrunken log2 fold change” value: -0.423 for the first, -0.122 for the second.

RRIRNRPPRLPRPRPRPSWRPRP and RRIRPRPPRLPRPRPRPIWLPRP are within 0.2 log units of each other in “shrunken log2 fold change” value: 0.0128 for the first, -0.132 for the second.

First: RRIRARPPRLPRPRPRPHIWPRP
Second: RRIRYRPPRLPRPRPRPHWVPRP
The “shrunken log2 fold change” value of the first is lower: -0.187 for the first, 0.0405 for the second.

RRIRVRPPRLPRPRPRPAKWPRP and RRIRERPPRLPRPRPRPVGYPRP are within 0.2 log units of each other in “shrunken log2 fold change” value: 0.153 for the first, 0.161 for the second.

First: RRIRTRPPRLPRPRPRPKETPRP
Second: RRIRWRPPRLPRPRPRPEYCPRP
The “shrunken log2 fold change” value of the first is lower: 0.137 for the first, 1.23 for the second.

Going from RRIRYRPPRLPRPRPRPHESPRP to RRIRDRPPRLPRPRPRPEPTPRP, the “shrunken log2 fold change” value rises from 0.00952 to 0.885.

RRIRDRPPRLPRPRPRPYQKPRP and RRIRCRPPRLPRPRPRPWQRPRP are within 0.2 log units of each other in “shrunken log2 fold change” value: 0.0212 for the first, 0.109 for the second.

Going from RRIRLRPPRLPRPRPRPFNMPRP to RRIRGRPPRLPRPRPRPNLMPRP, the “shrunken log2 fold change” value rises from -0.189 to 0.144.

Compared with RRIRDRPPRLPRPRPRPSNYPRP, RRIRCRPPRLPRPRPRPERIPRP is higher in “shrunken log2 fold change” value: -0.29 for the first, 0.164 for the second.

RRIRSRPPRLPRPRPRPTLNPRP and RRIRIRPPRLPRPRPRPGNMPRP are within 0.2 log units of each other in “shrunken log2 fold change” value: -0.0269 for the first, -0.105 for the second.

Compared with RRIRARPPRLPRPRPRPLQIPRP, RRIRERPPRLPRPRPRPDQQPRP is lower in “shrunken log2 fold change” value: 0.0194 for the first, -0.278 for the second.

Compared with RRIRVRPPRLPRPRPRPVPPPRP, RRIRKRPPRLPRPRPRPECKPRP is higher in “shrunken log2 fold change” value: 0.27 for the first, 0.506 for the second.

With RRIRWRPPRLPRPRPRPWHFPRP the “shrunken log2 fold change” value was -0.265.

From the supplement of paper PMC9112550, “Optimization of the antimicrobial peptide Bac7 by deep mutational scanning” (BMC Biology, 2022)
